Measurements published in patent US20250011363A1, “OPTIMIZED SHORTENED PEPTIDE THAT BINDS TO ACETYLCHOLINE RECEPTOR, AND USE THEREOF” (SKINMED CO., LTD., priority 2021, published 2025).

Target: acetylcholine receptor
Experiment: SPR, receptor immobilized, peptide 10 uM

| Binder | Binding affinity (RU) | Binding affinity |
| --- | --- | --- |
| RRRIQR [6mer-1-201] | 151 RU | – |
| RWVLRR [6mer-2-142] | – | 121 RU |
| KWYQKK [6mer-2-141] | – | 154 RU |
| KRSQYR [6mer-1-179] | 148 RU | – |
| KRWFCK [6mer-1-168] | 131 RU | – |
| RQYYRK [6mer-2-159] | – | 127 RU |
| KKQVQK [6mer-1-199] | 151 RU | – |
| KKSYSK [6mer-1-189] | 137 RU | – |
| RRRVYK [6mer-1-186] | 147 RU | – |
| KRGYRR [6mer-1-177] | 121 RU | – |
| KGQQRK [6mer-2-149] | – | 127 RU |
| KKVYCK [6mer-1-176] | 121 RU | – |
| KRGICK [6mer-1-182] | 147 RU | – |
| RSFLRR [6mer-2-158] | – | 145 RU |
| KKGQTR [6mer-1-183] | 121 RU | – |
| KGVYKK [6mer-2-155] | – | 139 RU |
| KSIRRK [6mer-2-144] | – | 133 RU |
| RKSFYR [6mer-1-170] | 148 RU | – |
| KKGVLR [6mer-1-181] | 148 RU | – |

| Binder | Binding affinity (RU) | Binding affinity |
| --- | --- | --- |
| RQYYKK [6mer-2-145] | – | 128 RU |
| RRSIRR [6mer-1-197] | 139 RU | – |
| RKWQRR [6mer-1-194] | 144 RU | – |
| KGLQRR [6mer-2-156] | – | 127 RU |
| KVFCKK [6mer-2-137] | – | 135 RU |
| KRILKR [6mer-2-150] | – | 136 RU |
| RKRYQK [6mer-1-178] | 139 RU | – |
| KRQLRK [6mer-1-185] | 153 RU | – |
| KRQICR [6mer-1-184] | 139 RU | – |
| RKLYQR [6mer-1-200] | 142 RU | – |
| RSYRKK [6mer-2-157] | – | 153 RU |
| RKLYYR [6mer-1-190] | 153 RU | – |
| RKLVRK [6mer-1-180] | 146 RU | – |
| RQYTKR [6mer-2-147] | – | 133 RU |
| KKGVCR [6mer-1-174] | 154 RU | – |
| RKQYYR [6mer-1-173] | 123 RU | – |
| RKLFYK [6mer-1-187] | 139 RU | – |
| KQLRKR [6mer-2-151] | – | 142 RU |
| KLFRKK [6mer-2-139] | – | 149 RU |

| Binder | Binding affinity (RU) | Binding affinity |
| --- | --- | --- |
| RVYSRR [6mer-2-153] | – | 124 RU |
| KQLLKR [6mer-2-146] | – | 135 RU |
| KGQYKK [6mer-2-148] | – | 145 RU |
| KRQYQR [6mer-1-192] | 127 RU | – |
| KKQILK [6mer-1-191] | 139 RU | – |
| RQFYKR [6mer-2-152] | – | 139 RU |
| RRLIRK [6mer-1-172] | 153 RU | – |
| KRGISR [6mer-1-195] | 122 RU | – |
| RRQQSK [6mer-1-169] | 153 RU | – |
| KQRRRK [6mer-2-138] | – | 153 RU |
| RRRIQK [6mer-1-175] | 137 RU | – |
| RRVCRR [6mer-2-143] | – | 128 RU |
| RKSLQK [6mer-1-188] | 122 RU | – |
| KRVQLK [6mer-1-193] | 149 RU | – |
| KRVTKR [6mer-2-154] | – | 148 RU |
| RKWRRK [6mer-1-196] | 142 RU | – |
| KGRLKK [6mer-2-140] | – | 142 RU |
| RKQFQK [6mer-1-171] | 123 RU | – |
| KRLFCR [6mer-1-198] | 148 RU | – |
